Source: patent US20100015637A1 (AbbVie / Abbott, published 2010)
Blank lines part the entries; values can stand above or below the molecule they belong to.

What was measured:
[1] = target: human PlGF-1 comprising amino acids 1-137 produced in human embryonic kidney cells (human) (UniProt P49763); assay: Format 2 …, capture MAb264, detection Pb264; sFlt-1 153 pmol/L (ratio 5)
[2] = target: human PlGF-1 comprising amino acids 1-137 produced in human embryonic kidney cells (human) (UniProt P49763); assay: Format 2 …, capture MAb264, detection Pb264; sFlt-1 2300 pmol/L (ratio 75)
[3] = target: human PlGF-1 comprising amino acids 1-137 produced in human embryonic kidney cells (human) (UniProt P49763); assay: Format 2 …, capture MAb264, detection Pb264; sFlt-1 4600 pmol/L (ratio 150)
[4] = target: human PlGF-1 comprising amino acids 1-137 produced in human embryonic kidney cells (human) (UniProt P49763); assay: Format 3 Quantikine ELISA, capture MAb264, detection Pb264; sFlt-1 307 pmol/L (ratio 10)
[5] = target: human PlGF-1 comprising amino acids 1-137 produced in human embryonic kidney cells (human) (UniProt P49763); assay: Format 3 Quantikine ELISA, capture MAb264, detection Pb264; sFlt-1 1533 pmol/L (ratio 50)
[6] = target: human PlGF-1 comprising amino acids 1-137 produced in human embryonic kidney cells (human) (UniProt P49763); assay: Format 3 Quantikine ELISA, capture MAb264, detection Pb264; sFlt-1 2300 pmol/L (ratio 75)
[7] = target: human PlGF-1 comprising amino acids 1-137 produced in human embryonic kidney cells (human) (UniProt P49763); assay: Format 3 Quantikine ELISA, capture MAb264, detection Pb264; sFlt-1 9200 pmol/L (ratio 300)
[8] = target: T1, CHO human PlGF-1 comprising amino acids 1-137 (human PlGF-1-His (1-131), CHO 6305) (human, UniProt P49763 19-221, N-glycans at N21 (completely glycosylated) and N89 (partially glycosylated)); assay: … sandwich, capture MAb826, detection pAb264; antigen 15 pg/mL
T1 construct: Mature human PlGF-1 with 6xHis tag (137 amino acids); also called CHO (1-137)
T1 sequence: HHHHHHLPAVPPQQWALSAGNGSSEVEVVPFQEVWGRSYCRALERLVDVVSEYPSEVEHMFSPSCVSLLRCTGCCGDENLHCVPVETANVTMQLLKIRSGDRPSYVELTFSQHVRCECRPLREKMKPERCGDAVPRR

[9] = target: T2, human PlGF-1 comprising amino acids 1-137 produced in human embryonic kidney cells (human, UniProt P49763 19-221); assay: as above
T2 construct: Mature human PlGF-1 with 6xHis tag; also called HEK (1-137); full length HEK human PlGF-1 (1-137)
T2 sequence: T1 sequence

[10] = target: T3, human PlGF-1 fragment (comprising amino acids 17-131) produced in human embryonic kidney cells (human, UniProt P49763 35-221); assay: as above
T3 sequence: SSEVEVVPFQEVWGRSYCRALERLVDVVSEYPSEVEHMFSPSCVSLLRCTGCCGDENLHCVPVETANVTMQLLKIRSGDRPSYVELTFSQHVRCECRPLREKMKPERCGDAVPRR

[11] = target: T4, CHO human PlGF-1 fragment (comprising amino acids 17-131; ATCC PTA-8540) (human, UniProt P49763 35-221); assay: … sandwich, capture MAb255, detection MAb826; antigen 60 pg/mL
T4 sequence: T3 sequence
Procedure, shortened: (§1)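 In a sandwich immunoassay, human PlGF-1 antigen preparations, including recombinant forms expressed in CHO cells, were tested at 0 to 1500 pg/mL. Magnetic microparticles carried a monoclonal anti-human PlGF-1 capture antibody, attached by passive coating and EDAC cross-linking, and a second monoclonal anti-human PlGF-1 antibody labeled with acridinium ester served for detection. At each antigen level, the chemiluminescent signal was read in relative light units (RLU).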

[12] = target: T1, CHO human PlGF-1 comprising amino acids …; assay: as above
Procedure, shortened: as §1

[13] = target: T2, human PlGF-1 comprising amino acids …; assay: as above
Procedure, shortened: as §1

[14] = target: T3, human PlGF-1 fragment (comprising amino …); assay: as above
Procedure, shortened: as §1

[15] = target: T4, CHO human PlGF-1 fragment (comprising …); assay: … sandwich, capture MAb255, detection MAb826; antigen 1500 pg/mL
Procedure, shortened: as §1

[16] = target: T1, CHO human PlGF-1 comprising amino acids …; assay: as above
Procedure, shortened: as §1

[17] = target: T2, human PlGF-1 comprising amino acids …; assay: as above
Procedure, shortened: as §1

[18] = target: T3, human PlGF-1 fragment (comprising amino …); assay: as above
Procedure, shortened: as §1

% Inhibition [1]: 64.9% | PlGF-1 Measured [1]: 276 pg/mL | % Inhibition [2]: 95% | PlGF-1 Measured [2]: 39.7 pg/mL | % Inhibition [3]: 96.5% | PlGF-1 Measured [3]: 27.5 pg/mL | % Inhibition [4]: 32.6% | PlGF-1 Measured [4]: 583 pg/mL | % Inhibition [5]: 52.1% | PlGF-1 Measured [5]: 415 pg/mL | % Inhibition [6]: 75.9% | PlGF-1 Measured [6]: 209 pg/mL | % Inhibition [7]: 82.2% | PlGF-1 Measured [7]: 154 pg/mL
Molecule: native sFlt-1, isolated from human placental tissue (from UniProt P17948 27-687) (receptor)

RLU [8]: 10100 RLU | RLU [9]: 15500 RLU | RLU [10]: 12800 RLU
B1: monoclonal antibody 2-826-335 (produced by murine hybridoma cell line 2-826-335, ATCC PTA-8539) (antibody, mouse IgG1, V domains shown)
VH: QVQLKQSGPGLVQPSQSLSITCTVSGFSLTTYGIHWVRQSPGKGLEWLGVMWSGGDTDYDAAFISRLSISKDNSKSQVFFKMNSLQANDTGIYYCARYRFYGMDYWGQGTSVTVSS
VL: AIQMTQSSSSFSVSLGDRVTITCKASEDIYNRFAWYQQKPGNAPRLLISGAASLEAGVPSRFSGSGSGQDYTLSITSLQTEDVATYYCQQYWSTPWTFGGGTKLEIKR
notes: also called MAb826

RLU [11]: 42100 RLU | RLU [12]: 42200 RLU | RLU [13]: 101000 RLU | RLU [14]: 57900 RLU | RLU [15]: 750000 RLU | RLU [16]: 734000 RLU | RLU [17]: 1.52e+06 RLU | RLU [18]: 1.04e+06 RLU
B2: monoclonal antibody 1-255-713 (produced by murine hybridoma cell line 1-255-713, ATCC PTA-8536) (antibody, mouse IgG2a, V domains shown)
VH: QVHLQQSGAELMKPGASVKISCKATGYTFSSYWIEWVKQRPGHGLEWIGEILPGSVSNNFNEKFKDKATLTADPSSNTAYIQVSSLTSEDSAVYYCARSTGFYYGGNYFDHWGQGTTLAVSS
VL: DVVMTQTPLSLPVSPGDQASISCRSSQSLVHSNGHTYLHWYLQKPGQSPKLLIYKVSNRFSGVPDRVSGSGSGTDFTLKISRVEAEDLGVYFCSQSTHVPPTFGGGTKLEIKR
notes: also called MAb255
